Measurements reported in IntAct's records for PubMed 23386062.

Key:
[1] = target: nisch_human NISCH (UniProt Q9Y2I1)
[2] = target: nisch_human NISCH (UniProt Q9Y2I1); remark: listed apart in the source
[3] = target: nisch_human NISCH (UniProt Q9Y2I1); remark: listed apart in the source
[4] = target: nisch_human NISCH (UniProt Q9Y2I1); remark: listed apart in the source

Chain of UniProt Q9Y2I1 (Q9Y2I1 whole entry): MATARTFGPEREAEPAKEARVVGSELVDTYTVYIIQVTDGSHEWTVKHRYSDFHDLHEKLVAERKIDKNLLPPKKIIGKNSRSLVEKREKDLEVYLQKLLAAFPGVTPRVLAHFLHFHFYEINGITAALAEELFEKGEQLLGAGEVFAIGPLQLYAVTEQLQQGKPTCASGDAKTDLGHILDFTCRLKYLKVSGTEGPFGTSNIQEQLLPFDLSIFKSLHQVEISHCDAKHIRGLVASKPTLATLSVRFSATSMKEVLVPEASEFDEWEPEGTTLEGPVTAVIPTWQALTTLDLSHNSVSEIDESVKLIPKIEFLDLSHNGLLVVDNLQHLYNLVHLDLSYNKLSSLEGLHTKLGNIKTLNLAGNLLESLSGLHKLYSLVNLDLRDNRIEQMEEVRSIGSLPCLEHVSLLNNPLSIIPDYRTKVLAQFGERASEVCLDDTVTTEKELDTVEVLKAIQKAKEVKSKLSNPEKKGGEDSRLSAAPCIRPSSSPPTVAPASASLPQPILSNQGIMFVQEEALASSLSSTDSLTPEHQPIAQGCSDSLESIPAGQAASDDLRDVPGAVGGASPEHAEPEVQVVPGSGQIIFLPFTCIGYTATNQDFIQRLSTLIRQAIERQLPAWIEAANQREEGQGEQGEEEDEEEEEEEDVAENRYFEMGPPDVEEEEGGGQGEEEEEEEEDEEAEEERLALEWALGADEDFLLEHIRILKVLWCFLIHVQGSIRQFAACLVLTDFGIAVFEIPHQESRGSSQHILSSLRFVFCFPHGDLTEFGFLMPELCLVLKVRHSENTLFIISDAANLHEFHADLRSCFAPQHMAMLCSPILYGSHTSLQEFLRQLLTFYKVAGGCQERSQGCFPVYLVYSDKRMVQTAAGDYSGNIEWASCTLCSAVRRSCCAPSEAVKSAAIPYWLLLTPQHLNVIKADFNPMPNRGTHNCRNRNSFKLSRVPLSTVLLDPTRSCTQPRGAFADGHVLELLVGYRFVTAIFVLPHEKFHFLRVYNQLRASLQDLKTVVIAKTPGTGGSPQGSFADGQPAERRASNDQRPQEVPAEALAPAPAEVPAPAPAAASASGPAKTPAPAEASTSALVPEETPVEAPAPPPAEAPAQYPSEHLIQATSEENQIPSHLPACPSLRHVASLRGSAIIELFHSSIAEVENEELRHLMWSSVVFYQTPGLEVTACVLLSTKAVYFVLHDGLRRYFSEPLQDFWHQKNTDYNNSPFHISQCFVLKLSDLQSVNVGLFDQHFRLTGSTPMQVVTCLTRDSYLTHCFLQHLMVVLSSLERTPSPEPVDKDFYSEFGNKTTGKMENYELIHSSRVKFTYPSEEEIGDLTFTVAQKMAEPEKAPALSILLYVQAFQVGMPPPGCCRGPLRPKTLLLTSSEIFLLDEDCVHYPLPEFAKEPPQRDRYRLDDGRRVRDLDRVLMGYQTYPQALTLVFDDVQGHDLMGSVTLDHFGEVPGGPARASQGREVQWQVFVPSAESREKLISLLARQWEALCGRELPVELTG

Ras-related protein Rab-14 (Rattus norvegicus (Rat)) (from UniProt P61107) N124I
effect of a mutation on the interaction [1]: decreasing interaction

Ras-related protein Rab-14 (Rattus norvegicus (Rat)) (from UniProt P61107) Q70L
effect of a mutation on the interaction [2]: increasing interaction

Ras-related protein Rab-14 (Rattus norvegicus (Rat)) (from UniProt P61107) S25N
effect of a mutation on the interaction [3]: disrupting interaction
effect of a mutation on the interaction [4]: decreasing interaction
